Tests used:
C[C@H](O)C(=O)O = test: cells, lysate or membranes
CC(=O)C(=O)O = test: cells, lysate or membranes

MCT1 (Rattus norvegicus) gave a Km (C[C@H](O)C(=O)O) of 5.7 ± 1.2 mM and a Km (CC(=O)C(=O)O) of 1.2 ± 0.2 mM.
